Experimental data from patent publication US20180057604A1 (Genentech, published 2018).
Positions count from the first letter of the chain named. Names and notes keep the numbering of the source. Where two headings read alike, the source gives them in different places.

Assays:
[1] = molecular target: T1, human BACE1 ECD; test: Octet, pH 5.0
T1 construct: analyte of the Octet assay (200 nM) and enzyme of the first short substrate assay; also called human BACE1 extracellular domain

[2] = molecular target: T2, murine BACE1 ECD; test: Octet, pH 5.0
T2 construct: analyte of the Octet assay (200 nM) and enzyme of the first short substrate assay

[3] = molecular target: T3, human BACE1 (R&D Systems) (human, UniProt P56817); test: SPR (Biacore)
T3 construct: recombinant, commercial (R&D Systems)

[4] = molecular target: T1, human BACE1 ECD; test: Octet, pH 5.0, second run
[5] = molecular target: T2, murine BACE1 ECD; test: Octet, pH 5.0, second run
[6] = molecular target: T3, human BACE1 (R&D Systems); test: SPR (Biacore), second run
[7] = molecular target: T1, human BACE1 ECD; test: Octet, pH 7.5, second run
[8] = molecular target: T2, murine BACE1 ECD; test: Octet, pH 7.5, second run
[9] = molecular target: T1, human BACE1 ECD; test: cell-based or functional assay
[10] = molecular target: T2, murine BACE1 ECD; test: cell-based or functional assay
[11] = molecular target: T4, BACE1 in primary mouse cortical neurons (mouse, UniProt P56818 46-501); test: cell-based or functional assay
[12] = molecular target: T5, BACE1 (HTRF long substrate and FRET short substrate assays of Example 9D); test: cell-based or functional assay
[13] = molecular target: T1, human BACE1 ECD; test: Octet, pH 7.5
[14] = molecular target: T2, murine BACE1 ECD; test: Octet, pH 7.5
[15] = molecular target: T1, human BACE1 ECD; test: Octet, pH 7.5; remark: listed apart in the source
[16] = molecular target: T2, murine BACE1 ECD; test: Octet, pH 7.5; remark: listed apart in the source
[17] = molecular target: T1, human BACE1 ECD; test: Octet, pH 5.0; remark: listed apart in the source
[18] = molecular target: T2, murine BACE1 ECD; test: Octet, pH 5.0; remark: listed apart in the source
[19] = molecular target: T4, BACE1 in primary mouse cortical neurons; test: cell-based or functional assay; remark: listed apart in the source
[20] = molecular target: T3, human BACE1 (R&D Systems); test: SPR (Biacore); remark: listed apart in the source
[21] = molecular target: T6, human TfR extracellular domain with N-terminal His tag (human, UniProt P02786 89-760); test: SPR steady state, IgG
T6 construct: Biotinylated in some assays; also called huTfR; HuTfR

[22] = molecular target: T7, cyno TfR extracellular domain (analogous construct to human TfR ecd) (cynomolgus monkey, UniProt Q5RDH6 87-760 (Pongo abelii entry)); test: SPR steady state, IgG
T7 construct: also called cynoTfR ecd
T7 chain: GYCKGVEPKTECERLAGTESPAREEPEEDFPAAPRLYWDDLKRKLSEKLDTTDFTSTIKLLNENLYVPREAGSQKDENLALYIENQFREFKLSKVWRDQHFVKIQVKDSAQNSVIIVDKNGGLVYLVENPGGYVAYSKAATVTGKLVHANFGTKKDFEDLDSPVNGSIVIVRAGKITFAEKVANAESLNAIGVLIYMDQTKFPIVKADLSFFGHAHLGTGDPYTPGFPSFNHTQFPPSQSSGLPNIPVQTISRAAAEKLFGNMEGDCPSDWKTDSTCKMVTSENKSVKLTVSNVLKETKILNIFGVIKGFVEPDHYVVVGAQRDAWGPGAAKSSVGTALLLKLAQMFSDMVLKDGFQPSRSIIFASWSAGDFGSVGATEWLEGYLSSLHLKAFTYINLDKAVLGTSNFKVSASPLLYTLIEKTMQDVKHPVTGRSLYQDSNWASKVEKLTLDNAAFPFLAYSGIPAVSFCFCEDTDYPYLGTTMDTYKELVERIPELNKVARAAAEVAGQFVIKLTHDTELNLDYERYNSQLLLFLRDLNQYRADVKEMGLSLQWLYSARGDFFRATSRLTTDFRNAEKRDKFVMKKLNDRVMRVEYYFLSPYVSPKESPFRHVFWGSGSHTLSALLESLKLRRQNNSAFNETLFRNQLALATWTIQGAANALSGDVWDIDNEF

[23] = molecular target: T6, human TfR extracellular domain with …; test: SPR SCK 1:1 fit, IgG
[24] = molecular target: T7, cyno TfR extracellular domain …; test: SPR SCK 1:1 fit, IgG
[25] = molecular target: T6, human TfR extracellular domain with …; test: ELISA, IgG;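 also: ELISA of IgG-containing supernatants tested in 1:5 serial dilutions for 1 h, bound antibody read out with HRP anti-kappa antibody and TMB substrate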
[26] = molecular target: T7, cyno TfR extracellular domain …; test: ELISA, IgG;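 also: ELISA of IgG-containing supernatants tested in 1:5 serial dilutions for 1 h, bound antibody read out with HRP anti-kappa antibody and TMB substrate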
[27] = molecular target: T1, human BACE1 ECD; test: Octet, pH 5.0; remark: listed apart in the source
[28] = molecular target: T2, murine BACE1 ECD; test: Octet, pH 5.0; remark: listed apart in the source
[29] = molecular target: T1, human BACE1 ECD; test: Octet, pH 5.0, second run; remark: listed apart in the source
[30] = molecular target: T2, murine BACE1 ECD; test: Octet, pH 5.0, second run; remark: listed apart in the source
[31] = molecular target: T3, human BACE1 (R&D Systems); test: SPR (Biacore); remark: listed apart in the source
[32] = molecular target: T5, BACE1 (HTRF long substrate and FRET …); test: cell-based or functional assay; remark: listed apart in the source
[33] = molecular target: T3, human BACE1 (R&D Systems); test: SPR (Biacore), second run; remark: listed apart in the source
[34] = molecular target: T1, human BACE1 ECD; test: Octet, pH 7.5; remark: listed apart in the source
[35] = molecular target: T2, murine BACE1 ECD; test: Octet, pH 7.5; remark: listed apart in the source
[36] = molecular target: T1, human BACE1 ECD; test: Octet, pH 7.5, second run; remark: listed apart in the source
[37] = molecular target: T2, murine BACE1 ECD; test: Octet, pH 7.5, second run; remark: listed apart in the source

T4 sequence (P56818 46-501): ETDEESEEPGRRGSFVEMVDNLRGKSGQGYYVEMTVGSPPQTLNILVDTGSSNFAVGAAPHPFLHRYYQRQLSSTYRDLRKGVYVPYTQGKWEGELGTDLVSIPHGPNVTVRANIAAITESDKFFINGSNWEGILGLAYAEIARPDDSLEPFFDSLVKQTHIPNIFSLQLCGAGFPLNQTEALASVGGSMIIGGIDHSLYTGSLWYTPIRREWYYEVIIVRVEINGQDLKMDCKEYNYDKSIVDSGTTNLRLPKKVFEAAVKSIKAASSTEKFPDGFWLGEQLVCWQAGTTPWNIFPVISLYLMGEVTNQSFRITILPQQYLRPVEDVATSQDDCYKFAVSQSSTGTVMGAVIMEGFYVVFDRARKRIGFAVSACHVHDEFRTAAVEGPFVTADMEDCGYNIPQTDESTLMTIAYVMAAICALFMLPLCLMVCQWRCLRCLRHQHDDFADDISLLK
T1 sequence (single chain, as listed by the source limits assumed): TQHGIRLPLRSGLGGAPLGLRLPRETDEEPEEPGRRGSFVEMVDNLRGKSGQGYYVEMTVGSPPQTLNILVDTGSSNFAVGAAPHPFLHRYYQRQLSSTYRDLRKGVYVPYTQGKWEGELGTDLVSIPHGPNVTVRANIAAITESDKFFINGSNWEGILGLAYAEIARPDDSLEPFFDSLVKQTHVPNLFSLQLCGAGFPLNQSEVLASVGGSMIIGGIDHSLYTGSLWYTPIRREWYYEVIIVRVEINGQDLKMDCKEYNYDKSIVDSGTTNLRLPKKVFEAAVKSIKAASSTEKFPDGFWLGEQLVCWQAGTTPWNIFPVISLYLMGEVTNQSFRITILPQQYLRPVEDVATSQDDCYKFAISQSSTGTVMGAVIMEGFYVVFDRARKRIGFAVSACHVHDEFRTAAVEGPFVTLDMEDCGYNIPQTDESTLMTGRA
T3 sequence (P56817 22-457 limits assumed): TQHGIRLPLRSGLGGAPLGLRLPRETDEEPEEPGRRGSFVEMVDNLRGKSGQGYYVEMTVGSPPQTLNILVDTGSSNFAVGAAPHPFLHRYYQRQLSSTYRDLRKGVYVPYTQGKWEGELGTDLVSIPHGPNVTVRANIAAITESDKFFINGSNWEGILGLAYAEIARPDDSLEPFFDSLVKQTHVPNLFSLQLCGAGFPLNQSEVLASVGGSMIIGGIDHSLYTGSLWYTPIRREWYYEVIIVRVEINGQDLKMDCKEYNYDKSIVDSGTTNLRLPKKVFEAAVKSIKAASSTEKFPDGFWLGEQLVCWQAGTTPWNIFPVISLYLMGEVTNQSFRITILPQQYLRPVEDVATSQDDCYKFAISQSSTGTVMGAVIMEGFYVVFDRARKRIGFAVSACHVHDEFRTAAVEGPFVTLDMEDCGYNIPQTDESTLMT
T2 sequence (single chain, as listed by the source limits assumed): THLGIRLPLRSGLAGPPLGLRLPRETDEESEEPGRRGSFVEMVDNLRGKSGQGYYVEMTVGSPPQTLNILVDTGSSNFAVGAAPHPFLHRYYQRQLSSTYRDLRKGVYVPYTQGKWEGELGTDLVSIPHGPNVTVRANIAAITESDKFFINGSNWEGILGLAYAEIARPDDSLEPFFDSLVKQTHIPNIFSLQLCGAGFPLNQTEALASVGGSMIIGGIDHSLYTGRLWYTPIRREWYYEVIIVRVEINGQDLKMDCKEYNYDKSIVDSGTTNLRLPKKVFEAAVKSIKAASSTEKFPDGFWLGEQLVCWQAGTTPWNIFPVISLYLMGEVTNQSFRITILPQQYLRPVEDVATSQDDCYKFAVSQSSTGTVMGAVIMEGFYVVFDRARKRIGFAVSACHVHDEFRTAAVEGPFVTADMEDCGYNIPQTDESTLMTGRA

B1: 5896 (antibody, V domains shown)
VH: QLQLQESGPGLVKPSETLSLTCTVSGGSISSSSYYWGWIRQPPGKGLEWIGSIYRSGSTYYNPSLKSRVTISVDTSKNQFSLKLSSVTAADTAVYYCARVGHGISYFDLWGRGTLVTVSS
VL: EIVLTQSPATLSLSPGERATLSCRASQSVSSYLAWYQQKPGQAPRLLIYDASNRATGIPARFSGSGSGTDFTLTISSLEPEDFAVYYCQQSLTWPPRTFGGGTKVEIK
notes: anti-BACE1 IgG
- Kd [1]: 3 nM
- Kd [2]: 3.1 nM
- Kd [3]: 3.4 nM
- Kd [4]: 1.1 nM
- Kd [5]: 1 nM
- Kd [6]: 5.18 nM
- Kd [7]: 0.71 nM
- Kd [8]: 0.8 nM
- % inhibition of BACE1 activity, short FRET substrate [9]: -4%
- % inhibition of BACE1 activity, short FRET substrate [10]: -3%
- IC50, Abeta x-40 in mouse cortical neurons [11]: 2.7 nM
- IC50, Abeta x-40 in mouse cortical neurons (5896*, second run) [11]: 5.72 nM
- maximal % inhibition of Abeta x-40 [11]: 65%
- EC50, FRET short substrate [12]: 3.35 nM
- EC50, HTRF long substrate [12]: 3.46 nM
- Kd [13]: 1.9 nM
- Kd [14]: 2.9 nM

B2: 6310 (antibody, V domains shown)
VH: B1 VH with S31W, G37S, S58R, S105N
VL: B1 VL with L92V
notes: anti-BACE1 IgG
- Kd [15]: 0.46 nM
- Kd [16]: 0.47 nM
- Kd [17]: 0.44 nM
- Kd [18]: 0.5 nM
- IC50, Abeta x-40 in mouse cortical neurons [19]: 0.17 nM
- maximal % inhibition of Abeta x-40 [19]: 71%
- Kd [20]: 1.63 nM

B3: N99A (antibody, V domains shown)
VH: EVQLVQSGAEVKKPGASVKVSCKGSGYTFTDYAMHWVRQAPGQGLEWMGGISTYFGRTNYNQKFKGRVTMTVDTSISTAYMELSRLRSDDTAVYYCARGLSGAYVMDYWGQGTTVTVSS
VL: DIVMTQSPDSLAVSLGERATINCRASESVDSYGNSFMHWYQQKPGQPPKLLIYRASNLESGVPDRFSGSGSRTDFTLTISSLQAEDVAVYYCQQSNEAPPTFGQGTKLEIK
notes: also called 7A4.v15 N99A (CDR-H3) IgG; copies: 2 + 2
- Kd [21]: 19 nM
- Kd [22]: 77 nM
- Kd [23]: 11 nM
- Kd [24]: 22 nM
- EC50 [25]: 0.017 mg/L
- EC50 [26]: 0.0822 mg/L

B4: Q90A (antibody, V domains shown)
VH: B3 VH with A103N
VL: B3 VL with Q94A
notes: also called 7A4.v15 Q90A (CDR-L3) IgG
- Kd [21]: 41 nM
- Kd [22]: 329 nM
- Kd [23]: 16 nM
- Kd [24]: 570 nM
- EC50 [25]: 0.0093 mg/L
- EC50 [26]: 0.181 mg/L

B5: 5884 (antibody, V domains shown)
VH: QVQLVQSGAEVKKPGSSVKVSCKASGGTFSGYGISWVRQAPGQGLEWMGNIIPGFGTANYAQKFQGRVTITADESTSTAYMELSSLRSEDTAVYYCARSGGTKYGMLDVWGQGTMVTVSS
VL: EIVMTQSPATLSVSPGERATLSCRASQSVSSNLAWYQQKPGQAPRLLIYGASTRATGIPARFSGSGSGTEFTLTISSLQSEDFAVYYCQQLILWPPRTFGGGTKVEIK
notes: anti-BACE1 IgG
- Kd [27]: 1.4 nM
- Kd [28]: 2 nM
- Kd [29]: 0.86 nM
- Kd [30]: 1.3 nM
- Kd [31]: 2.62 nM
- EC50, FRET short substrate [32]: 0.478 nM
- EC50, HTRF long substrate [32]: 7.76 nM
- % inhibition of BACE1 activity, short FRET substrate [9]: -102%
- % inhibition of BACE1 activity, short FRET substrate [10]: -243%
- Kd [33]: 5.23 nM
- Kd [34]: 0.92 nM
- Kd [35]: 1.3 nM
- IC50, Abeta x-40 in mouse cortical neurons [11]: 4.56 nM
- IC50, Abeta x-40 in mouse cortical neurons (5884*, second run) [11]: 3.51 nM
- maximal % inhibition of Abeta x-40 [11]: 83%
- Kd [36]: 0.46 nM
- Kd [37]: 0.49 nM

B6: 6303 (antibody, V domains shown)
VH: B5 VH with F29L, G33A, F64S, K103R
VL: B5 VL with Y49F, I92L, L93T
notes: anti-BACE1 IgG
- Kd [15]: < 0.32 nM
- Kd [16]: < 0.35 nM
- Kd [17]: < 0.26 nM
- Kd [18]: < 0.32 nM
- IC50, Abeta x-40 in mouse cortical neurons [19]: 4.1 nM
- maximal % inhibition of Abeta x-40 [19]: 76%
- Kd [20]: 3.09 nM

B7: 5887 (antibody, V domains shown)
VH: B5 VH with S30R, G33A
VL: B5 VL
notes: anti-BACE1 IgG
- Kd [4]: 1.4 nM
- Kd [5]: 1.8 nM
- Kd [27]: 2.2 nM
- Kd [28]: 2.3 nM
- Kd [6]: 7.08 nM
- Kd [7]: 0.45 nM
- Kd [8]: 0.54 nM
- Kd [31]: 3.58 nM
- EC50, FRET short substrate [32]: 0.482 nM
- EC50, HTRF long substrate [32]: 5.5 nM
- % inhibition of BACE1 activity, short FRET substrate [9]: -102%
- % inhibition of BACE1 activity, short FRET substrate [10]: -230%
- Kd [34]: 1.1 nM
- Kd [35]: 1.4 nM
- IC50, Abeta x-40 in mouse cortical neurons [11]: 1.74 nM
- IC50, Abeta x-40 in mouse cortical neurons (5887*, second run) [11]: 2.53 nM
- maximal % inhibition of Abeta x-40 [11]: 75%
